Here are results for one variant from IntAct's records for PubMed 19665976.

To fix the notation:
B1: Atlastin-1 (Homo sapiens), Q8WXF7 (parent)
chain: MAKNRRDRNSWGGFSEKTYEWSSEEEEPVKKAGPVQVLIVKDDHSFELDETALNRILLSEAVRDKEVVAVSVAGAFRKGKSFLMDFMLRYMYNQESVDWVGDYNEPLTGFSWRGGSERETTGIQIWSEIFLINKPDGKKVAVLLMDTQGTFDSQSTLRDSATVFALSTMISSIQVYNLSQNVQEDDLQHLQLFTEYGRLAMEETFLKPFQSLIFLVRDWSFPYEFSYGADGGAKFLEKRLKVSGNQHEELQNVRKHIHSCFTNISCFLLPHPGLKVATNPNFDGKLKEIDDEFIKNLKILIPWLLSPESLDIKEINGNKITCRGLVEYFKAYIKIYQGEELPHPKSMLQATAEANNLAAVATAKDTYNKKMEEICGGDKPFLAPNDLQTKHLQLKEESVKLFRGVKKMGGEEFSRRYLQQLESEIDELYIQYIKHNDSKNIFHAARTPATLFVVIFITYVIAGVTGFIGLDIIASLCNMIMGLTLITLCTWAYIRYSGEYRELGAVIDQVAAALWDQGSTNEALYKLYSAAATHRHLYHQAFPTPKSESTEQSEKKKM
partner: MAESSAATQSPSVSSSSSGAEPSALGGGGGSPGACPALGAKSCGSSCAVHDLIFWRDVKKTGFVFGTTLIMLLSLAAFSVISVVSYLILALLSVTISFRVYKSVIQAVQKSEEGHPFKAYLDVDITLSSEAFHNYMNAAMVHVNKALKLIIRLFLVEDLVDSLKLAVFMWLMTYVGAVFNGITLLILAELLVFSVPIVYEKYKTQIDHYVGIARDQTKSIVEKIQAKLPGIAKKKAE

This assay covers variants of B1. As to conditions: with Rtn3, Q9ES97-3.
Take MAKNRRDRNSWGGFSEKTYEWSSEEEEPVKKAGPVQVLIVKDDHSFELDETALNRILLSEAVRDKEVVAVSVAGAFRKGASFLMDFMLRYMYNQESVDWVGDYNEPLTGFSWRGGSERETTGIQIWSEIFLINKPDGKKVAVLLMDTQGTFDSQSTLRDSATVFALSTMISSIQVYNLSQNVQEDDLQHLQLFTEYGRLAMEETFLKPFQSLIFLVRDWSFPYEFSYGADGGAKFLEKRLKVSGNQHEELQNVRKHIHSCFTNISCFLLPHPGLKVATNPNFDGKLKEIDDEFIKNLKILIPWLLSPESLDIKEINGNKITCRGLVEYFKAYIKIYQGEELPHPKSMLQATAEANNLAAVATAKDTYNKKMEEICGGDKPFLAPNDLQTKHLQLKEESVKLFRGVKKMGGEEFSRRYLQQLESEIDELYIQYIKHNDSKNIFHAARTPATLFVVIFITYVIAGVTGFIGLDIIASLCNMIMGLTLITLCTWAYIRYSGEYRELGAVIDQVAAALWDQGSTNEALYKLYSAAATHRHLYHQAFPTPKSESTEQSEKKKM [K80A]: the “effect of a mutation on the interaction” value was “decreasing interaction”.
